Experimental findings from PMC11398526 (bioRxiv, 2024) are described below.

The labels stand for the following.
B1: progesterone receptor isoform B (PR-B), full-length, Strep II tagged (natural protein)
chain: MTELKAKGPRAPHVAGGPPSPEVGSPLLCRPAAGPFPGSQTSDTLPEVSAIPISLDGLLFPRPCQGQDPSDEKTQDQQSLSDVEGAYSRAEATRGAGGSSSSPPEKDSGLLDSVLDTLLAPSGPGQSQPSPPACEVTSSWCLFGPELPEDPPAAPATQRVLSPLMSRSGCKVGDSSGTAAAHKVLPRGLSPARQLLLPASESPHWSGAPVKPSPQAAAVEVEEEDGSESEESAGPLLKGKPRALGGAAAGGGAAAVPPGAAAGGVALVPKEDSRFSAPRVALVEQDAPMAPGRSPLATTVMDFIHVPILPLNHALLAARTRQLLEDESYDGGAGAASAFAPPRSSPCASSTPVAVGDFPDCAYPPDAEPKDDAYPLYSDFQPPALKIKEEEEGAEASARSPRSYLVAGANPAAFPDFPLGPPPPLPPRATPSRPGEAAVTAAPASASVSSASSSGSTLECILYKAEGAPPQQGPFAPPPCKAPGASGCLLPRDGLPSTSASAAAAGAAPALYPALGLNGLPQLGYQAAVLKEGLPQVYPPYLNYLRPDSEASQSPQYSFESLPQKICLICGDEASGCHYGVLTCGSCKVFFKRAMEGQHNYLCAGRNDCIVDKIRRKNCPACRLRKCCQAGMVLGGRKFKKFNKVRVVRALDAVALPQPVGVPNESQALSQRFTFSPGQDIQLIPPLINLLMSIEPDVIYAGHDNTKPDTSSSLLTSLNQLGERQLLSVVKWSKSLPGFRNLHIDDQITLIQYSWMSLMVFGLGWRSYKHVSGQMLYFAPDLILNEQRMKESSFYSLCLTMWQIPQEFVKLQVSQEEFLCMKVLLLLNTIPLEGLRSQTQFEEMRSSYIRELIKAIGLRQKGVVSSSQRFYQLTKLLDNLHDLVKQLHLYCLNTFIQSRALSVEFPEMMSEVIAAQLPKILAGMVKPLLFHKK
B2: progesterone receptor isoform A (PR-A), full-length, Strep II tagged (natural protein)
chain: MSRSGCKVGDSSGTAAAHKVLPRGLSPARQLLLPASESPHWSGAPVKPSPQAAAVEVEEEDGSESEESAGPLLKGKPRALGGAAAGGGAAAVPPGAAAGGVALVPKEDSRFSAPRVALVEQDAPMAPGRSPLATTVMDFIHVPILPLNHALLAARTRQLLEDESYDGGAGAASAFAPPRSSPCASSTPVAVGDFPDCAYPPDAEPKDDAYPLYSDFQPPALKIKEEEEGAEASARSPRSYLVAGANPAAFPDFPLGPPPPLPPRATPSRPGEAAVTAAPASASVSSASSSGSTLECILYKAEGAPPQQGPFAPPPCKAPGASGCLLPRDGLPSTSASAAAAGAAPALYPALGLNGLPQLGYQAAVLKEGLPQVYPPYLNYLRPDSEASQSPQYSFESLPQKICLICGDEASGCHYGVLTCGSCKVFFKRAMEGQHNYLCAGRNDCIVDKIRRKNCPACRLRKCCQAGMVLGGRKFKKFNKVRVVRALDAVALPQPVGVPNESQALSQRFTFSPGQDIQLIPPLINLLMSIEPDVIYAGHDNTKPDTSSSLLTSLNQLGERQLLSVVKWSKSLPGFRNLHIDDQITLIQYSWMSLMVFGLGWRSYKHVSGQMLYFAPDLILNEQRMKESSFYSLCLTMWQIPQEFVKLQVSQEEFLCMKVLLLLNTIPLEGLRSQTQFEEMRSSYIRELIKAIGLRQKGVVSSSQRFYQLTKLLDNLHDLVKQLHLYCLNTFIQSRALSVEFPEMMSEVIAAQLPKILAGMVKPLLFHKK
B3: steroid receptor coactivator 3 (SRC3), full-length, Strep II tagged (natural protein)
chain: not shown

In assay [1] the target is T1, histone acetyltransferase p300, full-length, Strep II tagged (human, UniProt Q09472 1-2414). Put plainly: cross-linking.
T1 sequence (Q09472 whole entry): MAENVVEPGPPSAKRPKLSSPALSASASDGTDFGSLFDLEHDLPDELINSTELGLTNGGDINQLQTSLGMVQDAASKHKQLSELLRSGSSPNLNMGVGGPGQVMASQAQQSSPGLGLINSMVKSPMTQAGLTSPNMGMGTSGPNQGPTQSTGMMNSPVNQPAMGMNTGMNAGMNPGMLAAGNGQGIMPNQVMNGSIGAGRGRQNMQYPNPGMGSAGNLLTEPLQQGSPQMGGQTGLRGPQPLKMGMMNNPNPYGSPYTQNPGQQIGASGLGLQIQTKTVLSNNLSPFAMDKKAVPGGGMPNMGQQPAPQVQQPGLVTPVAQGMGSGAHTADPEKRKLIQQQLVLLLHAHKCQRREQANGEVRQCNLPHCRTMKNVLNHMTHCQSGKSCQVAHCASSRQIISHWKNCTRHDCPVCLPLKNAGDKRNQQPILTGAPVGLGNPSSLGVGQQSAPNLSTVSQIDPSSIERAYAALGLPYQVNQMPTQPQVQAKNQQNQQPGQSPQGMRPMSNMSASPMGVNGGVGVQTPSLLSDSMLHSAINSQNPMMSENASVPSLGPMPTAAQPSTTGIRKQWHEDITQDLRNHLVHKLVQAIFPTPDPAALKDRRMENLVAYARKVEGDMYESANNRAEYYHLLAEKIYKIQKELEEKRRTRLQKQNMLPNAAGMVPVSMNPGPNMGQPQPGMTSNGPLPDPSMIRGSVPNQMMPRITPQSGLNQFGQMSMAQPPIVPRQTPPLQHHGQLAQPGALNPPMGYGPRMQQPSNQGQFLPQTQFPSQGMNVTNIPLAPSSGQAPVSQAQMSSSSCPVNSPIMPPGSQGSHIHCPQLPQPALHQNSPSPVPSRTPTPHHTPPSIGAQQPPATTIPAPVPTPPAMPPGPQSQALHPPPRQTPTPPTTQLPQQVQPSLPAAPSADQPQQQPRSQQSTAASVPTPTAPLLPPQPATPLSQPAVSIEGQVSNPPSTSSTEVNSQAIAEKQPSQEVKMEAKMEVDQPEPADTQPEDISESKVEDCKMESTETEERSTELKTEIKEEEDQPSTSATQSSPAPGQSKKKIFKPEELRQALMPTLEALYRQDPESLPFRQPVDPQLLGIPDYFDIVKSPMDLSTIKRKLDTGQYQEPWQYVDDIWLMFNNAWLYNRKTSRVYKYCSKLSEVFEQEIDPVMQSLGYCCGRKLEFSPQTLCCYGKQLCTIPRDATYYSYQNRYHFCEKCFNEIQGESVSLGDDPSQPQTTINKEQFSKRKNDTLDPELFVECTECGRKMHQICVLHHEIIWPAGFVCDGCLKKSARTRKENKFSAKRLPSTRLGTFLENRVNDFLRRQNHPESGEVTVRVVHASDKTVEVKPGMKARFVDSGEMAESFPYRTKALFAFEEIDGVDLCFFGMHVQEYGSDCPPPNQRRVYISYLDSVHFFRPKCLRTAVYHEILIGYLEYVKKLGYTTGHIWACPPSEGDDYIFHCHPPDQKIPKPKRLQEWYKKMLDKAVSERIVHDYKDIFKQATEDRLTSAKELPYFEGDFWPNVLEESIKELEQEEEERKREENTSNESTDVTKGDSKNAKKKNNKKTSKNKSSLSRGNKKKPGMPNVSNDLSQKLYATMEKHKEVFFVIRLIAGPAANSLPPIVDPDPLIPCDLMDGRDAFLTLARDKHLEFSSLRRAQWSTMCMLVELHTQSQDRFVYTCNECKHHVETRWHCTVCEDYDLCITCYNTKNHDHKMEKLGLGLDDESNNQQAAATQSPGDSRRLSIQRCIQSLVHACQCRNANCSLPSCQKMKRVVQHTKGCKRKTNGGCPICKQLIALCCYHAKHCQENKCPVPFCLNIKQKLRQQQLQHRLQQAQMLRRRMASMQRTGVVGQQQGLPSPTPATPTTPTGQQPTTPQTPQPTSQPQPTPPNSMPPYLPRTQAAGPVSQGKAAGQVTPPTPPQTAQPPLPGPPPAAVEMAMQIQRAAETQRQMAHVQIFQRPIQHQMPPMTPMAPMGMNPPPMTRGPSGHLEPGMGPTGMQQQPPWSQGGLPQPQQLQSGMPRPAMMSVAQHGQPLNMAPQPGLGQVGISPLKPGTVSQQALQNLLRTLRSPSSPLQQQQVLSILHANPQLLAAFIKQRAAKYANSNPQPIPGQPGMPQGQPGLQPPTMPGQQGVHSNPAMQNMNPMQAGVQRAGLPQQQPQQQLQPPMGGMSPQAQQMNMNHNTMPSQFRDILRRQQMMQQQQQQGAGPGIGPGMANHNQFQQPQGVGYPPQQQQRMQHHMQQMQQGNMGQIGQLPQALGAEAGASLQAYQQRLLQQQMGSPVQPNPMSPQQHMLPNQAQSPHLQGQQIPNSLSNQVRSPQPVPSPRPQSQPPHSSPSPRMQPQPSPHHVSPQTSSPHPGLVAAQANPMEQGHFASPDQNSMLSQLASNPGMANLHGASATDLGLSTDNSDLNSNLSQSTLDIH
Assay [2] addresses B3. Put plainly: HDX-MS.
Assay [3] has as its target B2. Put plainly: SEC-MALS. Background: In gel filtration, larger molecules generally elute earlier.
Assay [4] concerns the target T1, histone acetyltransferase p300, …. Briefly: HDX-MS.

On to B1, for which the binding result in assay [1] and in assay [2] was “binds” each time.

Consider B2, for which the binding result in assay [1] and in assay [2] was “binds” throughout.

On to B3, for which the “stoichiometry N” value in assay [3] was 0.5 SRC3 per PR-A. In addition, the binding result in assay [4] is “binds”.

The stoichiometry N is a count of units in the complex or per binding partner.
